The text below walks through data of patent US11603409B2, “Humanized DR4 antibody gene having apoptosis-inducing activity and dual-acting chimeric antigen receptor T cell or natural killer cell therapeutic agent using same” (GENEUIN-TECH CO., LTD., priority 2017, dated 2023).

The subject of experiment [1] is HEK293 cells which do not express DR4. Description: Apoptosis induction by secretory DR4 scFv protein, MTT method, HEK293 control cells. It is filed as cell-based, human. Particulars: HEK293 cells not expressing DR4; protein added to culture medium at low and high concentrations; FIG. 4(A). The procedure:
(§1) To this end, apoptosis-inducing effects of secretory humanized DR4 scFv antibody recombinant protein were analyzed using HeLa cells, a cervical cancer cell line expressing DR4 on the cell surface, and HCT-116 cells, a colon cancer cell line. […] Each of these three cells was inoculated in a culture dish and cultured overnight, and then the secretory humanized DR4 scFv antibody recombinant protein was added to the culture medium, and the degree of death of the cells during culturing was determined by MTT method (Cyto X™ Cell viability assay kit, LPS solution, Korea).
A general note: Tetrazolium dyes change colour on reduction, which living cells bring about.

The subject of experiment [2] is HeLa cells, a cervical cancer cell line expressing DR4. Description: Apoptosis induction by secretory DR4 scFv protein, MTT method, HeLa cells. Type of experiment: cell-based. The following applies: low and high concentrations, FIG. 4(B). The procedure: as §1
For experiment [3], the system named is HCT-116 cells, a colon cancer cell line. Description: Apoptosis induction by secretory DR4 scFv protein, MTT method, HCT-116 cells. Type of experiment: cell-based. The following applies: HCT-116 cells expressing DR4; low and high concentrations; FIG. 4(C). The procedure: as §1

B1: secretory humanized DR4 scFv antibody recombinant protein: Secreted humanized anti-DR4 scFv (SEQ ID NO: 1) with isoleucine zipper, Flag and His6 tags, expressed from pCMVFL-srkDR4 in HEK293 cells (protein)
scFv: EVQLVESGGGLVQPGGSLRLSCSASGFTFSSYSMQWVRQAPGKGLEYVAGIRSDGRYTNYGAAVKGRATISRDNSKNTVYLQMNSLRAEDTAVYYCAKGAYGYCGSTCAPYLGQIDAWGQGTLVTVSSGSTSGSGKPGSGEGSTKGSYELTQPPSVSVSPGQTVRITCSGGRYTYGWFQQKPGQAPVTVIYGNDKRPSNIPSRFSGSTSGSTVTLTISGVQAEDEADYYCGGADFSAGLFGGGTKLTVL
modifications: left off: small tags and cut ends; a dimerising Fc or GST
B1: the “apoptosis effect (degree of death of the cells by MTT method)” value in experiment [1] was “not observed”; in experiment [2], “apoptosis increased in proportion to the concentration”; in experiment [3], “apoptosis increased in proportion to the concentration”.
